Results as given in article PMC3902912.

Molecular target: T1, CTCF11ZF (UniProt Q61164 266-579)
T1 sequence: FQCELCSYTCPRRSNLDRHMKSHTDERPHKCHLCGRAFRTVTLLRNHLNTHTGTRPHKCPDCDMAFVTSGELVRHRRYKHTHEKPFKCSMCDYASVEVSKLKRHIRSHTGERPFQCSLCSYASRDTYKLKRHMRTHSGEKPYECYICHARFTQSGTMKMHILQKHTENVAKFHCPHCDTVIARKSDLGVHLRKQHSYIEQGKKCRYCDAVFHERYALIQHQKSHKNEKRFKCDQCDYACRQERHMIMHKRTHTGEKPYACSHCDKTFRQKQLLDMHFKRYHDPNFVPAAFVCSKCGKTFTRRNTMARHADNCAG
Assay: FP competition

B1: LowOc1_Scrambled (dsDNA)
DNA 1: CCCTGGTCGGTGTGGCTGGCGACACCTCGCACTCTG
DNA 2: CAGAGTGCGAGGTGTCGCCAGCCACACCGACCAGGG
binding result: no binding
